The target of this data set is T1, PaeCascade (type I-F Csy complex: Csy1, Csy2, Csy3, Csy4 + crRNA) (Pseudomonas aeruginosa, UniProt Q02ML9;Q02MM0;Q02MM1;Q02MM2 1-434;1-327;1-342;1-187).
T1 sequence 1: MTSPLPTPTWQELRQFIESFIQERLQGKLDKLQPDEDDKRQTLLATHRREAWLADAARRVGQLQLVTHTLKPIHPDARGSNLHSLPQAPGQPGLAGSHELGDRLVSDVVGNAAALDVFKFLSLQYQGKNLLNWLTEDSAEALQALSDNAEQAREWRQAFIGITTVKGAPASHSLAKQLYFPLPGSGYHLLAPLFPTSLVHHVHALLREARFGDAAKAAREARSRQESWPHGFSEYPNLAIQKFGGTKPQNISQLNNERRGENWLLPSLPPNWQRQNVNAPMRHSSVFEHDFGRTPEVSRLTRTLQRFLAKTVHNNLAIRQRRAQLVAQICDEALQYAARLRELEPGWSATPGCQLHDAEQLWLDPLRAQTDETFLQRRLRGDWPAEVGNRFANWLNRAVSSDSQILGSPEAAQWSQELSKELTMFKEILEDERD
T1 sequence 2: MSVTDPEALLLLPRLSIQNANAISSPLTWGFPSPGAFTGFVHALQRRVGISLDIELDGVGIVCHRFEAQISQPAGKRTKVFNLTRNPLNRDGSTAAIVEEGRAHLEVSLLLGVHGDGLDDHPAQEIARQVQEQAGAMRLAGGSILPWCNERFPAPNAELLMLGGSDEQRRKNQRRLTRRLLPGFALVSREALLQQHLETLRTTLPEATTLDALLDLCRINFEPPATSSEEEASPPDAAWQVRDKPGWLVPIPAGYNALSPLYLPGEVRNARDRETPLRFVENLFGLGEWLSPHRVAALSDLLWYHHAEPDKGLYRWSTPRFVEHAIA
T1 sequence 3: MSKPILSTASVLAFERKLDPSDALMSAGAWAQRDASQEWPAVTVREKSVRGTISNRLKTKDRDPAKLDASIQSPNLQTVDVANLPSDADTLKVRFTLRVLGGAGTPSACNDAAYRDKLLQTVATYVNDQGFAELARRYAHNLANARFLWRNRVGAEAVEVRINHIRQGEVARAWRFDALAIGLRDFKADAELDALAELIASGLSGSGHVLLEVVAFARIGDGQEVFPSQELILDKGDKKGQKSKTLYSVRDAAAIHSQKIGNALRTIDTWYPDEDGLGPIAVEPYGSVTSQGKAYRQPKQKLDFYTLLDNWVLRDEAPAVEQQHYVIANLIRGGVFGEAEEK
T1 sequence 4: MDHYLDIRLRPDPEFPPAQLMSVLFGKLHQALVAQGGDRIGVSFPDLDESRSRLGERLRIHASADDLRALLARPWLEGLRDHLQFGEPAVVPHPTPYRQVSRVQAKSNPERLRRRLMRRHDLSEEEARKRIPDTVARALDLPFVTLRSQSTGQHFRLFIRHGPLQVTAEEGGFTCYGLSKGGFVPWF
Put plainly: EMSA; crRNA-loaded complex; 200 nM DNA; 1 mM EDTA; 50 mM HEPES-Na pH 7.0, 50 mM NaCl, 1 mM DTT, 1 mM EDTA, 10 IU RNase inhibitor, 200 nM dsDNA, 37 C 30 min; non-denaturing TBE-PAGE, GelRed stain. To be noted: protein: recombinant; copies: 1;1;6;1; blunt. For orientation: In EMSA bound probe runs differently from free probe, usually more slowly.

B1: type I-F EMSA target dsDNA (dsDNA)
DNA 1: CTATCGAAGCAATACAGGTAGACGCGGACATCAAGCCCGCCGTGAAGGTGCAGCTTCTC
DNA 2: GAGAAGCTGCACCTTCACGGCGGGCTTGATGTCCGCGTCTACCTGTATTGCTTCGATAG
Turning to B1, the binding result was “binds”.

(Values after publication PMC7305327, “Repurposing type I–F CRISPR–Cas system as a transcriptional activation tool in human cells”.)
